According to US20230079150A1, “METHODS FOR PREVENTION OR TREATMENT OF VIRUS-INDUCED ORGAN INJURY OR FAILURE WITH IL-22 DIMER” (priority 2020, published 2023):

How the values were obtained:
C57BL/6 mice [1] = experiment: LPS acute lung injury mouse model: BAL protein (Bradford assay); format: in vivo; conditions: F-652 4 μg i.v., day 4
Method: (§1) After approval from the Tulane University, Institutional Animal Care and Use Committee (protocol ID 607), equal numbers of male and female, 6-8 week old C57BL/6 mice (Charles River Laboratories, Cambridge, Mass.) were given acute lung injury (ALI) via intra-tracheally administered LPS. After obtaining appropriate depth of anesthesia using isoflurane, the high-dose LPS group (HDG) received 100 μg of LPS administered intra-tracheally. Approximately 30 minutes after LPS administration, 4 μg of F-652 was administered via tail vein injection (n=11), then compared to animals receiving sham injection (n=8) with phosphate-buffered saline (PBS). In the low-dose LPS group (LDG), 33.3 μg of LPS was administered intra-tracheally. F-652 was again administered at 30 minutes (n=9) and compared to sham injected animals (n=9). […]
(§2) The BAL fluid was then centrifuged at 500×gravity for 5 minutes. […] To quantify protein in the BAL supernatant, a Bradford protein assay (Bio-Rad Laboratories) was performed. Protein was quantified by measuring absorbance at 595 nm on a BMG Labtech FLUOstar Optima plate reader. […] Human IL-22 was measured using an IL-22 Human ELISA kit (ThermoFisher Scientific). Mouse IL-22 was measured using an IL-22 Mouse/Rat Quantikine ELISA kit (R&D Systems).

[2] = LPS acute lung injury mouse model: human IL-22 ELISA in BAL; format: in vivo, mice; conditions: high-dose LPS; F-652 4 μg tail vein; day 4; sham non-detectable
Method: as §1, §2

[3] = test system: H1N1 influenza (A/PR8 strain); format: in vivo, C57BL/6 mice
HUVECs = experiment: Real-time quantitative RT-PCR of mRNA levels in HUVECs; format: cell-based, human
Method: RNA was isolated with Trizol (Invitrogen) and used as a template for reverse transcriptase (reverse transcriptase mix sold under the trademark ISCRIPT® RT supermix, Bio-Rad). mRNAs were quantified by real-time PCR with the cyanine nucleic acid dye IQ SYBR® Green Supermix (Bio-Rad), and normalized against PPIA mRNA as the internal control gene. Relative changes in expression were calculated using the […] as established in prior studies. (Livak K J, Schmittgen T D. “Analysis of relative gene expression data using real-time quantitative PCR and the 2^−ΔΔCT method.” Methods. 2001; 25(4):402-8).

IL-22Ra1 = IL-22Ra1 receptor immunofluorescence in HUVECs; format: cell-based, human
Method: HUVECs were fixed in 3.5% formaldehyde in PBS for 10 minutes. Cells were then blocked in 1% BSA in PBS for one hour. Cells were then incubated overnight in primary antibody for IL-22Ra1 (Invitrogen, Carlsbad, Calif.) diluted 1:100 in 1% BSA in PBS. Cells were then washed with PBS 3 times. Cells were incubated with secondary antibody, goat anti-mouse Alexa Fluor 488 (1:500; Invitrogen, A28175) diluted 1:500 in 1% BSA in PBS along with 0.1 μg/ml of 4,6 diamidino-2phylindole (DAPI) (Sigma) for one hour, followed by three washes in PBS. Cells were then cover slipped with Fluoro Gel mounting medium and imaged on an EVOS fluorescence microscope. Fluorescence intensity was quantified using ImageJ.

C57BL/6 mice [4] = experiment: LPS acute lung injury mouse model: endothelial glycocalyx intensity in alveolar capillaries; format: in vivo
Method: as §1
Paraformaldehyde-fixed lung segments were flash-frozen in Optimal Cutting Temperature (O.C.T) compound (Sakura) and sectioned on a cryostat. […] Glycocalyx and nuclei (4′,6-diamidino-2-phenylindole) were imaged on an Olympus BX51 fluorescence microscope under identical conditions. ImageJ software was used to quantify glycocalyx fluorescence intensity in the alveolar capillaries from a minimum of 20 regions of interest from 3 mice per condition.

[5] = test system: H1N1 influenza (A/PR8 strain); format: in vivo, C57BL/6 mice; conditions: aged hosts; treated for 3 weeks
[6] = LPS and F-652 co-exposed, LPS only 1.49
[7] = LPS and F-652 compared to control

B1: F-652: recombinant IL-22 dimer consisting of two monomeric subunits each comprising a sequence shown in SEQ ID NO: 24 (protein)
chain 1: APISSHCRLDKSNFQQPYITNRTFMLAKEASLADNNTDVRLIGEKLFHGVSMSERCYLMKQVLNFTLEEVLFPQSDRFQPYMQEVVPFLARLSNRLSTCHIEGDDLHIQRNVQKLKDTVKKLGESGEIKAIGELDLLFMSLRNACIGSGGGSGGGGSGGGGSVECPPCPAPPVAGPSVFLFPPKPKDTLMISRTPEVTCVVVDVSHEDPEVQFNWYVDGVEVHNAKTKPREEQFNSTFRVVSVLTVVHQDWLNGKEYKCKVSNKGLPASIEKTISKTKGQPREPQVYTLPPSREEMTKNQVSLTCLVKGFYPSDIAVEWESNGQPENNYKTTPPMLDSDGSFFLYSKLTVDKSRWQQGNVFSCSVMHEALHNHYTQKSLSLSPGK
chain 2: APISSHCRLDKSNFQQPYITNRTFMLAKEASLADNNTDVRLIGEKLFHGVSMSERCYLMKQVLNFTLEEVLFPQSDRFQPYMQEVVPFLARLSNRLSTCHIEGDDLHIQRNVQKLKDTVKKLGESGEIKAIGELDLLFMSLRNACIGSGGGSGGGGSGGGGSVECPPCPAPPVAGPSVFLFPPKPKDTLMISRTPEVTCVVVDVSHEDPEVQFNWYVDGVEVHNAKTKPREEQFNSTFRVVSVLTVVHQDWLNGKEYKCKVSNKGLPASIEKTISKTKGQPREPQVYTLPPSREEMTKNQVSLTCLVKGFYPSDIAVEWESNGQPENNYKTTPPMLDSDGSFFLYSKLTVDKSRWQQGNVFSCSVMHEALHNHYTQKSLSLSPGK
modifications: homodimer
**Q.** Which results are given for B1?
**A.** BAL protein (C57BL/6 mice [1]; high-dose LPS injury, sham 0.38): 0.55 µg/µL; BAL protein (C57BL/6 mice [1]; low-dose LPS injury, sham 0.25): 0.15 µg/µL; human IL-22 level in BAL [2]: 27.41 pg/mL; tissue dampening (G) by FOT ([3]; aged H1N1 infected mice, baseline/tidal breathing, 3-week treatment): less resistance in small airways; static compliance (Cst) from PV loops relative to PBS controls ([3]; aged mice): increased static compliance; impedance following maximization of available lung volume ([3]; following airway recruitment maneuver, aged and young): has no effect; ADAM17 levels (HUVECs; F-652 alone, control 1.09): 1.14 RE; MMP-7 levels (HUVECs; F-652 alone, control 1.11): 1.23 RE; levels of any matrix metalloproteinase (HUVECs; F-652 only): did not change; VE-CAD RNA levels (HUVECs; F-652 only exposed, control 1.06): 1.01 RE; ADAM17 levels (HUVECs; LPS and F-652, control 1.09, LPS 2.42): 1.22 RE; MMP-7 levels (HUVECs; LPS and F-652, control 1.11, LPS 2.99): 1.53 RE; MYD88 RNA expression (HUVECs; LPS and F-652 co-exposed, LPS only 1.48): 0.72 RE; Exostosin-1 level (HUVECs; [6]): 0.82 RE; TIMP2 level (HUVECs; [6]): 0.82 RE; IRAK4 mRNA expression (HUVECs; LPS and F-652 co-exposed, LPS only 1.51): 0.86 RE; Exostosin-2 level (HUVECs; LPS and F-652 co-exposed, LPS only 1.88): 0.99 RE; TIRAP mRNA expression (HUVECs; LPS and F-652 co-exposed, LPS only 1.92): 0.82 RE; VE-CAD RNA levels (HUVECs; LPS and F-652 co-exposed, control 1.06, LPS only 1.96): 0.81 RE; expression of MMP-9 (HUVECs; [7]): did not change; expression of Matrix Metalloproteinase-1 (MMP-1) (HUVECs; [7]): did not significantly change; relative expression of MMP-2 (HUVECs; [7]): lower relative expression; relative expression of MMP-14 (HUVECs; [7]): lower relative expression; MMP-9 relative expression (HUVECs; LPS and F-652 exposed compared to LPS exposed (2.99)): 1.53 RE; TLR4 mRNA (HUVECs; all comparisons): not significantly different; Levels of TRAM, TRAF6, IRAK1, and TRIF (HUVECs; all group comparisons): not significantly different; Tissue inhibitor of metalloproteinase-1 (TIMP1) (HUVECs; among various HUVEC exposure groups): not different; IL-22Ra1 receptor expression compared to control (IL-22Ra1; F-652 alone): did not result in a difference; IL-22Ra1 receptor relative expression (IL-22Ra1; LPS and F-652, control 1.00): 0.69 RE; endothelial glycocalyx intensity, F-652 treated vs sham (C57BL/6 mice [4]; high dose LPS injury): no significant difference; endothelial glycocalyx intensity in alveolar capillaries (C57BL/6 mice [4]; low dose LPS injury, sham 63.7): 80.0 Arbitrary Units; lung histology (H&E, Masson's Trichrome, Sirius Red, PAS) [5]: ameliorates much of the H1N1-induced pathology
